Measured values taken from US20080220450A1 (DANISCO US INC GENENCOR DIVISION, published 2008).

Molecular target: HLA-DR2(15) (human)
Test: competition assay against a standard peptide on purified HLA class II

- IC50: 127 nM
B1: B. lentus subtilisin epitope peptide, amino acids 160-174 (peptide, UniProt P29600 160-174, looked up)
peptide: SYPARYANAMAVGAT
notes: Synthetic 15-mer; also called peptide position #54
